Assays:
[1] = target: T1, human CCL2 (MCP1) - wild type (wt) (human, UniProt P13500 24-99); assay: SPR Biacore T200, 37 C, antibody captured, CCL2 as analyte, 1:1 model
T1 construct: Entry is without signal peptide; Made in-house or bought from R&D Systems (279-MC), depending on the assay; monomer-dimer equilibrium; also called wt human CCL2; hCCL2
Description: (§1) Antibody clone supernatants were diluted 1:2 in system buffer and were captured for 1 min at 5 μl/min. […] Analyte kinetics were performed at 30 μl/min. […] Analytes were injected at 90 nM highest concentration. The analyte contact time was 3 min and the dissociation time was 10 min. The Biaevaluation software V.3.0 was used according to the instructions of the manufacturer GEHC. A 1:1 binding model with RMAX local was applied to apparently estimate kinetic rates.

[2] = target: T2, human CCL2 (MCP1) - P8A variant (human, UniProt P13500 24-99); assay: as above
T2 construct: Entry is without signal peptide; P8A prevents dimer formation (pure monomer); made in-house; also called monomeric human CCL2; monomeric CCL2
Description: as §1

[3] = target: T1, human CCL2 (MCP1) - wild type (wt); assay: SPR Biacore T200, 25 C, pH 5.5, antibody captured via anti-human Fc, 1:1 model
Description: (§2) An antibody capture system was established. […] The capture system was regenerated by an injection at 20 μl/min with HBS buffer (100 mM HEPES pH 7.4, 1.5 M NaCl, 0.05% (w/v) Tween 20), followed by a 1 min 15 sec injection with 10 mM NaOH and two 10 mM glycine buffer pH 2.5 injections for 1 min. Antibodies were captured were injected for 30 sec at 10 μl/min at 80 nM concentration diluted in the respective system buffer. […] The analyte contact time was 3 min and the dissociation time was 10 min. Analyte kinetics were performed at 50 μl/min.
(§3) The Biaevaluation software V.3.0 was used according to the instructions of the manufacturer GEHC. A 1:1 binding model with RMAX local was applied to determine kinetic rates.

[4] = target: T1, human CCL2 (MCP1) - wild type (wt); assay: SPR Biacore T200, 25 C, pH 5.9, antibody captured via anti-human Fc, 1:1 model
Description: as §2, §3

[5] = target: T1, human CCL2 (MCP1) - wild type (wt); assay: SPR Biacore T200, 25 C, pH 6.3, antibody captured via anti-human Fc, 1:1 model
Description: as §2, §3

[6] = target: T1, human CCL2 (MCP1) - wild type (wt); assay: SPR Biacore T200, 25 C, pH 6.7, antibody captured via anti-human Fc, 1:1 model
Description: as §2, §3

[7] = target: T1, human CCL2 (MCP1) - wild type (wt); assay: SPR Biacore T200, 25 C, pH 7.1, antibody captured via anti-human Fc, 1:1 model
Description: as §2, §3

[8] = target: T1, human CCL2 (MCP1) - wild type (wt); assay: SPR Biacore T200, 25 C, pH 7.4, antibody captured via anti-human Fc, 1:1 model
Description: as §2, §3

[9] = target: T1, human CCL2 (MCP1) - wild type (wt); assay: SPR Biacore T200, 25 C, pH 7.9, antibody captured via anti-human Fc, 1:1 model
Description: as §2, §3

[10] = target: T1, human CCL2 (MCP1) - wild type (wt); assay: SPR Biacore T200, 25 C, pH 8.3, antibody captured via anti-human Fc, 1:1 model
Description: as §2, §3

[11] = target: T1, human CCL2 (MCP1) - wild type (wt); assay: cell-based or functional assay
[12] = target: T1, human CCL2 (MCP1) - wild type (wt); assay: SPR, 25 C, pH 7.4, antibody captured via anti-human Fc on C1 chip, wt CCL2 as analyte, 1:1 model
Description: The sample and system buffer was PBS-T (10 mM phosphate buffered saline including 0.05% Tween20) pH 7.4. The flow cell was set to 25° C.—and the sample block set to 12° C.—and primed with running buffer twice. The bispecific antibody was captured by injecting a 2 μg/ml solution for 60 sec at a flow rate of 10 μl/min. Association was measured by injection of human CCL2 (wt) in various concentrations in solution for 150 sec at a flow rate of 30 μl/min starting with 30 nM in 1:10 dilutions. The dissociation phase was monitored for up to 1200 sec and triggered by switching from the sample solution to running buffer. […] Bulk refractive index differences were corrected by subtracting the response obtained from a goat anti human IgG Fc surface. Blank injections are also subtracted (=double referencing). For calculation of kinetic parameters, the Langmuir 1:1 model was used.

Binder	T½ [1]	T½ [2]	t½-diss. [3]	t½-diss. [4]	t½-diss. [5]	t½-diss. [6]	t½-diss. [7]	t½-diss. [8]	t½-diss. [9]	t½-diss. [10]	IC50, inhibition of THP-1 migration towards recombinant huCCL2 [11]	binding result [12]
ABN912 (antibody, human IgG1, V domains shown, Generated as human IgG1 wild type and IgG1 PGLALA with kappa light chain; also called AB912; CCL2-0003) VH: EVQLVQSGGGLVQPGGSLRLSCAASGFTFSHYWMSWVRQAPGKGLEWLANIEQDGSEKYYVDSVKGRFTISRDNAKNSLYLQMNSLRAEDTAVYFCARDLEGLHGDGYFDLWGRGTLVTVSS VL: AIQLTQSPSSLSASVGDRVILTCRASQGVSSALAWYQQKPGKAPKLLIYDASSLESGVPSRFSGSGSGPDFTLTISSLQPEDFATYFCQQFNSYPLTFGGGTKVEIK	33 min	25 min	0.03 min	1 min	3 min	8 min	20 min	33 min	25 min	35 min		
Humanized 11K2 (antibody, human IgG1, V domains shown, Generated as human IgG1 wild type and IgG1 PGLALA with kappa light chain; also called CCL2-0002; humanized 11k2 IgG1) VH: QVQLVQSGAEVKKPGSSVKVSCKASGLTISDTYMHWVRQAPGQGLEWMGRIDPANGNTKFDPKFQGRVTITADTSTSTAYMELSSLRSEDTAVYYCARGVFGFFDYWGQGTTVTVSS VL: DIQMTQSPSSLSASVGDRVTITCKATEDIYNRLAWYQQKPGKAPKLLISGATSLETGVPSRFSGSGSGTDYTLTISSLQPEDFATYYCQQFWSAPYTFGGGTKVEIK	118 min	116 min	118 min	287 min	1160 min	292 min	215 min	163 min	165 min	1160 min	0.7 µg/mL	
1A4//2F6-PGLALA (bispecific antibody, V domains shown, CrossMab: 1A4 arm VH/VL crossed, 2F6 arm non-crossed with CH1/CL charge modifications, knobs-into-holes, human IgG1 with L234A, L235A, P329G; also called CCL2-0054; P1AA3459) VH 1: QSLEESGGDLVKPGASLTLTCTASELDFYWICWVRQAPGKGLEWIACIGAGSSGSTYYASWAKGRFTVSKTSSTTVTLQMTSLTAADTATYFCARTGTEFTYYSLWGPGTLVTVSS VL 1: ALVMTQTPSSVSAAVGGTVTINCQASQSVYNNNMAWYQQKPGQPPKLLIYTASSLASGVPSHFRGSGSGTQFTLTISDLESDDAATYYCAGYKSYSNDEYGFGGGTEVVVK VH 2: QSLEESGGGLVQPEGSLTLTCTASGFSFNNNYYMCWVRQAPGKGLEWIGCISTDDSNTHYASWAQGRFTISKASSTALTLQVAGLTVADMATYFCARDAHFTSYGYGFDLWGPGTLVTVSS VL 2: DIVMTQTPASVSAAVGGTVSINCRASEDIENLVAWYQQKPGQPPKLLIYQASKLASGVPSRFKGSGSGAEFTLTIGDLESADAATYYCQGDYGSGWIMYSFGGGTDLVVK												binds
1A4//2F6-WT IgG1 (bispecific antibody, V domains shown, CrossMab: 1A4 arm VH/VL crossed, 2F6 arm non-crossed with CH1/CL charge modifications, knobs-into-holes, human IgG1 wild type Fc; also called CCL2-0057; P1AA3400) VH 1: QSLEESGGDLVKPGASLTLTCTASELDFYWICWVRQAPGKGLEWIACIGAGSSGSTYYASWAKGRFTVSKTSSTTVTLQMTSLTAADTATYFCARTGTEFTYYSLWGPGTLVTVSS VL 1: ALVMTQTPSSVSAAVGGTVTINCQASQSVYNNNMAWYQQKPGQPPKLLIYTASSLASGVPSHFRGSGSGTQFTLTISDLESDDAATYYCAGYKSYSNDEYGFGGGTEVVVK VH 2: QSLEESGGGLVQPEGSLTLTCTASGFSFNNNYYMCWVRQAPGKGLEWIGCISTDDSNTHYASWAQGRFTISKASSTALTLQVAGLTVADMATYFCARDAHFTSYGYGFDLWGPGTLVTVSS VL 2: DIVMTQTPASVSAAVGGTVSINCRASEDIENLVAWYQQKPGQPPKLLIYQASKLASGVPSRFKGSGSGAEFTLTIGDLESADAATYYCQGDYGSGWIMYSFGGGTDLVVK												binds

From patent US20240117029A1 (Hoffmann-La Roche, published 2024)
